Assay results: publication PMC11100808
pKd: −log10 of the molar value.

Molecular target: biotinylated human CK1δ catalytic domain (CK1δ ΔC) (human) (UniProt P48730)
Assay: BLI

Substance “LIN-42 CK1BD + Tail (from UniProt Q65ZG8 402-597) (domain or fragment)” has a pKd of 6.68.
